B1: 14-3-3 protein epsilon (Rattus norvegicus (Rat)), P62260 (parent)
chain: MDDREDLVYQAKLAEQAERYDEMVESMKKVAGMDVELTVEERNLLSVAYKNVIGARRASWRIISSIEQKEENKGGEDKLKMIREYRQMVETELKLICCDILDVLDKHLIPAANTGESKVFYYKMKGDYHRYLAEFATGNDRKEAAENSLVAYKAASDIAMTELPPTHPIRLGLALNFSVFYYEILNSPDRACRLAKAAFDDAIAELDTLSEESYKDSTLIMQLLRDNLTLWTSDMQGDGEEQNKEALQDVEDENQ
partner: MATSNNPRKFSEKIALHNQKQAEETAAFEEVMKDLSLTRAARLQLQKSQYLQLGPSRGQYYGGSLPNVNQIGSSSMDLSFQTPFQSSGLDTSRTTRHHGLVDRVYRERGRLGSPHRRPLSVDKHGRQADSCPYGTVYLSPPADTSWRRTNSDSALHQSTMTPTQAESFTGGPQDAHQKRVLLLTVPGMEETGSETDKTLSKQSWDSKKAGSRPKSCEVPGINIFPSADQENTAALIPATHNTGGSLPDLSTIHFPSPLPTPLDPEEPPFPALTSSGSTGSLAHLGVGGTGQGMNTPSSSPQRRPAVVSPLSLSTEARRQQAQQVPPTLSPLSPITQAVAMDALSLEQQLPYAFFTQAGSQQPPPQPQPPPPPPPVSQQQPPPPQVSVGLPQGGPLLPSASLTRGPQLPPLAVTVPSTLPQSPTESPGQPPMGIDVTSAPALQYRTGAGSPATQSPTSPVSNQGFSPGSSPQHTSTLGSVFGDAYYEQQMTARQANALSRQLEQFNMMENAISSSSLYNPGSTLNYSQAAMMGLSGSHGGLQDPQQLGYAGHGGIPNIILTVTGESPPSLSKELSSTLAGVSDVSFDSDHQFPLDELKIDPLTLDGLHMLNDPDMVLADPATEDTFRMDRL

We go through one variant from IntAct's records for PubMed 22770221.

Variants of B1 are the subject of this experiment. Conditions: with crtc1_rat Crtc1, Q157S1.
For the variant K50E, the “effect of a mutation on the interaction” value was “decreasing interaction strength”.
